Literature values as cited in US20200247855A1, “THERAPY AND DIAGNOSTICS” (OXFORD UNIVERSITY INNOVATION LIMITED, priority 2017, published 2020).

Key:
CCL4_HUMAN = molecular target: T1, CCL4_HUMAN (Homo sapiens, UniProt P13236); settings: data obtained from publications [20-22,32]; cited from earlier work
T1 sequence (P13236 24-92): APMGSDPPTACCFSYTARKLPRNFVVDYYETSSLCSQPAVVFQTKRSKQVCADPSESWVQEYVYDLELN

CCL27_HUMAN = molecular target: T2, CCL27_HUMAN (Homo sapiens, UniProt Q9Y4X3); settings: data obtained from publications [20-22,32]; cited from earlier work
T2 sequence (Q9Y4X3 25-112): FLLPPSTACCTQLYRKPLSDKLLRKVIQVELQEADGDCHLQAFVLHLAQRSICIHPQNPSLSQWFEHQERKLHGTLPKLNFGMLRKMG

CCL26_HUMAN = CCL26_HUMAN (Homo sapiens, UniProt Q9Y258); settings: read-out: Kd, CCL26_HUMAN, previously described evasins; data obtained from publications [20-22,32]; cited from earlier work
Sequence of CCL26_HUMAN (Q9Y258 24-94): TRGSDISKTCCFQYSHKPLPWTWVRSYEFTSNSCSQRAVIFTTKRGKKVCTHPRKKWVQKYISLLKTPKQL

CCL3_HUMAN = molecular target: T3, CCL3_HUMAN (Homo sapiens, UniProt P10147); settings: read-out: Kd, CCL3_HUMAN, previously described evasins; data obtained from publications [20-22,32]; cited from earlier work
T3 sequence (P10147 24-92): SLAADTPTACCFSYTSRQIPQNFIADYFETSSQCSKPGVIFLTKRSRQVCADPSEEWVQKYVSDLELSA

CCL13_HUMAN = CCL13_HUMAN (Homo sapiens, UniProt Q99616); settings: data obtained from publications [20-22,32]; cited from earlier work
Sequence of CCL13_HUMAN (Q99616 17-98): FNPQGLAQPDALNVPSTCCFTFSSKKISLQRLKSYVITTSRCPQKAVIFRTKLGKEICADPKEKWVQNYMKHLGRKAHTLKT

CCL2_HUMAN = CCL2_HUMAN (Homo sapiens, UniProt P13500); settings: data obtained from publications [20-22,32]; cited from earlier work
Sequence of CCL2_HUMAN (P13500 24-99): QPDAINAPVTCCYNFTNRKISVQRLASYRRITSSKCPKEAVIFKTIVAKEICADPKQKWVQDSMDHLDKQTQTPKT

CCL17_HUMAN = molecular target: T4, CCL17_HUMAN (Homo sapiens, UniProt Q92583); settings: read-out: Kd, CCL17_HUMAN, previously described evasins; data obtained from publications [20-22,32]; cited from earlier work
T4 sequence (Q92583 24-94): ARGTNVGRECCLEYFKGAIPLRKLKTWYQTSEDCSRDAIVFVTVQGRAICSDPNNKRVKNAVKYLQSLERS

CCL5_HUMAN = molecular target: T5, CCL5_HUMAN (Homo sapiens, UniProt P13501); settings: read-out: Kd, CCL5_HUMAN, previously described evasins; data obtained from publications [20-22,32]; cited from earlier work
T5 sequence (P13501 24-91): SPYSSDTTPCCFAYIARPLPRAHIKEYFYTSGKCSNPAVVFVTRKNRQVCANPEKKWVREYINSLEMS

CCL19_HUMAN = molecular target: T6, CCL19_HUMAN (Homo sapiens, UniProt Q99731); settings: read-out: Kd, CCL19_HUMAN, previously described evasins; data obtained from publications [20-22,32]; cited from earlier work
T6 sequence (Q99731 22-98): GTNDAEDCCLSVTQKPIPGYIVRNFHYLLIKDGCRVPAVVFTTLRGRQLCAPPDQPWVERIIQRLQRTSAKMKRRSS

CCL15_HUMAN = molecular target: T7, CCL15_HUMAN (Homo sapiens, UniProt Q16663); settings: read-out: Kd, CCL15_HUMAN, previously described evasins; data obtained from publications [20-22,32]; cited from earlier work
T7 sequence (Q16663 22-113): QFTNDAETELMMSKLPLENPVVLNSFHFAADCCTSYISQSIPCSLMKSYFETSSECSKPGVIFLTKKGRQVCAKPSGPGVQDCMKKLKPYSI

CCL14_HUMAN = molecular target: T8, CCL14_HUMAN (Homo sapiens, UniProt Q16627); settings: read-out: Kd, CCL14_HUMAN, previously described evasins; data obtained from publications [20-22,32]; cited from earlier work
T8 sequence (Q16627 20-93): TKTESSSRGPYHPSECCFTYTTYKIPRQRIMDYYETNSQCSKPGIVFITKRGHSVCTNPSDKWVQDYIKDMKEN

CCL24_HUMAN = molecular target: T9, CCL24_HUMAN (Homo sapiens, UniProt O00175); settings: read-out: Kd, CCL24_HUMAN, previously described evasins; data obtained from publications [20-22,32]; cited from earlier work
T9 sequence (O00175 27-119): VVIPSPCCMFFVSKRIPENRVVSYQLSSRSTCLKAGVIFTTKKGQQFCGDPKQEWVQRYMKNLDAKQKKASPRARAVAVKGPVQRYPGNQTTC

B1: EVASIN4: previously described tick CKBP evasin 4, from Rhipicephalus sanguineus (protein, listed as Rhipicephalus sanguineus)
chain: EVPQMTSSSAPDLEEEDDYTAYAPLTCYFTNSTLGLLAPPNCSVLCNSTTTWFNETSPNNASCLLTVDFLTQDAILQENQPYNCSVGHCDNGTCAGPPRHAQCW
Kd, CCL4_HUMAN, previously described evasins (CCL4_HUMAN): No Binding | Kd, CCL27_HUMAN, previously described evasins (CCL27_HUMAN): No Binding | Kd (CCL26_HUMAN): 0.88 nM | Kd (CCL3_HUMAN): 0.06 nM | Kd, CCL13_HUMAN, previously described evasins (CCL13_HUMAN): No Binding | Kd, CCL2_HUMAN, previously described evasins (CCL2_HUMAN): No Binding | Kd (CCL17_HUMAN): 0.61 nM | Kd (CCL5_HUMAN): 0.09 nM | Kd (CCL19_HUMAN): 0.14 nM | Kd (CCL15_HUMAN): 2.31 nM | Kd (CCL14_HUMAN): 0.14 nM | Kd (CCL24_HUMAN): 0.41 nM
